The assay deals with T1, Drosha (mouse (endogenous in N2A), UniProt Q5HZJ0 1-1373).
T1 sequence: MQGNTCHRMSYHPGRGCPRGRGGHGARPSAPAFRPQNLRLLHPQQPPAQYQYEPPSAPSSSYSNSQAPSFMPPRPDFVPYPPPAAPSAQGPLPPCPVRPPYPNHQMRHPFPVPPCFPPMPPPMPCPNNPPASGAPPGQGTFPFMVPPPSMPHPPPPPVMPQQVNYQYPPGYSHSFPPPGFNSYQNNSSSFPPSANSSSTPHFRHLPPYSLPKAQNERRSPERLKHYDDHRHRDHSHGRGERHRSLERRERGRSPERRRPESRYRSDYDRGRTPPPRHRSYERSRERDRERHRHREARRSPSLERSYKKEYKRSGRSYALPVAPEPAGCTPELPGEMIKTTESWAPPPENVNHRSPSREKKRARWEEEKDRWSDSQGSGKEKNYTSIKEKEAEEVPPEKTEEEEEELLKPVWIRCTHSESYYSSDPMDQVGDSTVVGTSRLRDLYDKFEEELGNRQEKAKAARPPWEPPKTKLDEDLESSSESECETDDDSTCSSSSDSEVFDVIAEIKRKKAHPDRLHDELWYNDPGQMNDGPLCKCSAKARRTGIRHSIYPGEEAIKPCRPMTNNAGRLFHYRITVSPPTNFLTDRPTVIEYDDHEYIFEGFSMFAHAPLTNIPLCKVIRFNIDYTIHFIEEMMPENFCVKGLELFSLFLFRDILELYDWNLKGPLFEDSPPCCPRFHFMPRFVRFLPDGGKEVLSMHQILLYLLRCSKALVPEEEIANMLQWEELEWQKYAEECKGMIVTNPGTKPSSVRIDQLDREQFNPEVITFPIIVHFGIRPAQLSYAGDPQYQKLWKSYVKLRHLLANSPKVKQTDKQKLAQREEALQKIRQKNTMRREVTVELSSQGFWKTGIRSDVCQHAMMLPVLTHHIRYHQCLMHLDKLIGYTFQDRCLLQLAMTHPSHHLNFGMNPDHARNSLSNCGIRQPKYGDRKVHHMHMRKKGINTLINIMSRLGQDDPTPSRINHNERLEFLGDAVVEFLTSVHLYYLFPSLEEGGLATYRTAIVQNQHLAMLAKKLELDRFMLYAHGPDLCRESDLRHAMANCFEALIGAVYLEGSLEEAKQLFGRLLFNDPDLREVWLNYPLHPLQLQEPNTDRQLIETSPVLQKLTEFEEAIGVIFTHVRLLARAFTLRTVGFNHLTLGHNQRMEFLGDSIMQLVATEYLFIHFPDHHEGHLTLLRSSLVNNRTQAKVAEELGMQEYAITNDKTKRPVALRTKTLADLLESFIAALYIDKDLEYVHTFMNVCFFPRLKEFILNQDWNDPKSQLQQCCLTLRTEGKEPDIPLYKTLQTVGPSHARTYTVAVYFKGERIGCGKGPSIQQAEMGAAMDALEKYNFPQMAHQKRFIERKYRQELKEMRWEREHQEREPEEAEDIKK
Put plainly: co-IP.

B1: Safb1-ΔRE-HA (natural protein)
chain: MAETLSGLGDASAAGAAAVSSAASETGTRRLSDLRVIDLRAELKKRNLDSSGNKSVLMERLKKAIEDEGGNPDEIEVTSECNKKMPKRPSKGRKPEDEGVEDNGLEENSGDGQEDVETSLENLQDMDMMDISVLDEADIDNGSVADCVEEEEEATLPEGLADSTELVEGDLKGLPEQLQEHAIDDKDTVNNVDTSSSDFTMLQEMEEASLEPENEKILDILGETCKSEPVKEEGSELEQPFAQATSSVGPDRKLAEEEDLFESCGHPEEEEEEEEEDQEEEQEEEGDLALASSSKSESPSTRCQWSEADAPLAVVKREPADAPGGGTGMDREPVGLEEPVEQSSTAAQLPEATSQELVRAPTAALSPEPQDSKEDVKKFAFDACNDVPAPPKESSASEGADQKMSSVEEDSDTKRLSREEKGRSSCGRNFWVSGLSSTTRATDLKNLFSRYGKVVGAKVVTNARSPGARCYGFVTMSTAEEATKCISHLHKTELHGKMISVEKAKSEPTGKRVPDRRDGDSKKEKASTSDRSANLKREEKGERKDDAKKTDHREREELRRQQELRYEQERRPAVRRPYEVDGRRDDAYWPEAKRAALDDRYHSDFSRQDRFHDFDHRDRGRYPNHSVDRREGSRSMMGDREGQHYPERHGGPERHGRDSRDGWGYGSNKRLSEGRGLPPPPRRDWGEHGRRLEDDRAWQGTADGGMMERDHKRWQGGERSMSGHSGPGHMMNRGGMSGRGSFAPGGASRGHVIPRGGMQAGFGGQSRGSRPSDARFTRRY
In the case of B1, the “fold reduction in binding against Safb1 wild type” value is 5.7 fold.

The values above are taken from publication doi:10.1101/2021.10.22.465432 (bioRxiv, 2021).
